{"source": "the supplement of paper PMC6379048", "assay_in_all_cases": "EC50 of free RNA motif oligo competing protein binding to immobilised probe", "key": {"ERI3": {"target": "T1, ERI3 (UniProt O43414)", "T1 sequence": "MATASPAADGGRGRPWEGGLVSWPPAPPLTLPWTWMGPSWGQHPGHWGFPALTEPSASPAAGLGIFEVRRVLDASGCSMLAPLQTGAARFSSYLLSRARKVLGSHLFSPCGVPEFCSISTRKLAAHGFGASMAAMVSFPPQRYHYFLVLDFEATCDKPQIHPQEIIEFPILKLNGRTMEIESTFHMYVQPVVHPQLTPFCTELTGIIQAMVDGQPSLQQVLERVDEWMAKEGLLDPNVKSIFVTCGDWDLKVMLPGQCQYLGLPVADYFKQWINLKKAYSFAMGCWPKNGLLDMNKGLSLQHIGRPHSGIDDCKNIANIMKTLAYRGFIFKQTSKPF", "summary_of_the_method": "(§1)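 HEK293-FT lysate (2.5 mg protein/well) was treated with free RNA oligos (0 nM to 30 μM) for 1 h at 4°C, then with the same oligos on NHS-Sepharose beads for 30 min at 4°C. Bound proteins were quantified by label-free LC-MS/MS relative to the control. EC50 came from a four-parameter log-logistic fit, and Kd is EC50 times a protein-dependent depletion factor.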"}, "HSP90AB2P": {"target": "HSP90AB2P (UniProt Q58FF8)", "sequence (Q58FF8 whole entry)": "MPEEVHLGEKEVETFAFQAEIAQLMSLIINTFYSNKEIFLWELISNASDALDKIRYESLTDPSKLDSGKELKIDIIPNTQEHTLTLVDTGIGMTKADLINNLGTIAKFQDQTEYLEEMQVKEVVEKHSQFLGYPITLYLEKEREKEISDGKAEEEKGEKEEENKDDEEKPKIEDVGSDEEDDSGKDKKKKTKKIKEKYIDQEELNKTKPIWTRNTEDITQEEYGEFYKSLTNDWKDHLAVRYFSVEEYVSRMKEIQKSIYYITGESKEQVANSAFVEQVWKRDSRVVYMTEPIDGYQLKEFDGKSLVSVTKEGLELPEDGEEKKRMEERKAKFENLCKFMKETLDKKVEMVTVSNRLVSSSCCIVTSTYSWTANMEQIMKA", "summary_of_the_method": "as §1"}, "MRPL48": {"target": "MRPL48 (UniProt Q96GC5)", "summary_of_the_method": "as §1"}, "RPS5": {"target": "RPS5 (UniProt P46782)", "summary_of_the_method": "as §1"}, "RPS12": {"target": "RPS12 (UniProt P25398)", "summary_of_the_method": "as §1"}, "MRPL39": {"target": "MRPL39 (UniProt Q9NYK5)", "summary_of_the_method": "as §1"}, "MRPS27": {"target": "MRPS27 (UniProt Q92552)", "summary_of_the_method": "as §1"}, "HNRNPA2B1": {"target": "HNRNPA2B1 (UniProt P22626)", "sequence (P22626 whole entry)": "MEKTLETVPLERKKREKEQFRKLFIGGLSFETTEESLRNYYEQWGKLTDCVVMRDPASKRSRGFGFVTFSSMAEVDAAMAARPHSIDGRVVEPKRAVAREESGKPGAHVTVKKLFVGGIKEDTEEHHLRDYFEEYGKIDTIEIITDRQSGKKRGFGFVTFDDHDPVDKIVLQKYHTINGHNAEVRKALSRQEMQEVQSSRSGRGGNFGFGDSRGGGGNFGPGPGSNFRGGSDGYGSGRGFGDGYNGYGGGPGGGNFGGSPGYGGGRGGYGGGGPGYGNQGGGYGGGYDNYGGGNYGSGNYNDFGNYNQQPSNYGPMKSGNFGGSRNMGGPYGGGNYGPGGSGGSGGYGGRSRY", "summary_of_the_method": "as §1"}, "PRPF3": {"target": "T2, PRPF3 (UniProt O43395)", "T2 sequence": "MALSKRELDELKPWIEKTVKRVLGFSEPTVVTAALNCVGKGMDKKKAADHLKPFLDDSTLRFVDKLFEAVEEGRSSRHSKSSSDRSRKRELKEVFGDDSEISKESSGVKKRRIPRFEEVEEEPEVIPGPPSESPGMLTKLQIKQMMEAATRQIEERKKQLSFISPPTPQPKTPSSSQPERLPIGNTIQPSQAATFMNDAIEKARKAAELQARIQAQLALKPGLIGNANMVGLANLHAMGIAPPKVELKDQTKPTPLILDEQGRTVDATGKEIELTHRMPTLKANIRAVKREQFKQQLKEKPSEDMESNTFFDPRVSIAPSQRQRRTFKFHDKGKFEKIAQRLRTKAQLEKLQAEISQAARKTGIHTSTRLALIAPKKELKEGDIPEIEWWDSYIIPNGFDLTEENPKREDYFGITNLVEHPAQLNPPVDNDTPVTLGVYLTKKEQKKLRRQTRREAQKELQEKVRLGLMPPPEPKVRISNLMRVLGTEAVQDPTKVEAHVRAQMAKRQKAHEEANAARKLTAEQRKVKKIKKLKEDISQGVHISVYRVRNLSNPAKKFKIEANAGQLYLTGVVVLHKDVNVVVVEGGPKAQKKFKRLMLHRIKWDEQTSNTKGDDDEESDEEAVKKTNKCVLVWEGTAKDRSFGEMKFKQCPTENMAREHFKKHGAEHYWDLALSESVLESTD", "summary_of_the_method": "as §1"}, "MRPS25": {"target": "MRPS25 (UniProt P82663)", "summary_of_the_method": "as §1"}, "CWF19L1": {"target": "T3, CWF19L1 (UniProt Q69YN2)", "T3 sequence": "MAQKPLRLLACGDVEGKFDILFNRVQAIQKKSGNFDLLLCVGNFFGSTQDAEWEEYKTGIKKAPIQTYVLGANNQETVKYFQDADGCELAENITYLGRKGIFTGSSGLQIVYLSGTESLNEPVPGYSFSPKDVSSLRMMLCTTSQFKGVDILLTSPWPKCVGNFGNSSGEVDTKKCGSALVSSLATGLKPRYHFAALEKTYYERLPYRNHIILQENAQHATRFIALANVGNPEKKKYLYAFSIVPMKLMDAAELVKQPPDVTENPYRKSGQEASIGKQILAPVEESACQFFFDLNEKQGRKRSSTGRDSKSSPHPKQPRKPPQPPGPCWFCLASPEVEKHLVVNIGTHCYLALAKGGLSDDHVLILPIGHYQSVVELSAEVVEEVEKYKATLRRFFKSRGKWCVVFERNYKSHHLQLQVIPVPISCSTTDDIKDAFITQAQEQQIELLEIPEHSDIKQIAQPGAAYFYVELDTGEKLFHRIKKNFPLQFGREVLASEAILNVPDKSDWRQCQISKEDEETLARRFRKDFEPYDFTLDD", "summary_of_the_method": "as §1"}}, "data": [{"sequence": "AAUAAA", "values": [{"measurement": "EC50", "setting": "ERI3", "value": 1970, "unit": "nM"}, {"measurement": "EC50", "setting": "HSP90AB2P", "value": 129, "unit": "nM"}]}, {"sequence": "CUGUCCU", "values": [{"measurement": "EC50", "setting": "MRPL48", "value": 177, "unit": "nM"}, {"measurement": "EC50", "setting": "RPS5", "value": 303, "unit": "nM"}, {"measurement": "EC50", "setting": "RPS12", "value": 392, "unit": "nM"}, {"measurement": "EC50", "setting": "MRPL39", "value": 248, "unit": "nM"}]}, {"sequence": "UAUUUAU", "values": [{"measurement": "EC50", "setting": "MRPS27", "value": 82.5, "unit": "nM"}, {"measurement": "EC50", "setting": "HNRNPA2B1", "value": 7.32, "unit": "µM"}, {"measurement": "EC50", "setting": "PRPF3", "value": 7.13, "unit": "µM"}, {"measurement": "EC50", "setting": "MRPS25", "value": 17.4, "unit": "nM"}, {"measurement": "EC50", "setting": "CWF19L1", "value": 3.16, "unit": "µM"}]}]}
